# Test results reported in US20040265808A1, “Genes involved in osteogenesis, and methods of use” (priority 2001, published 2004).
# B1: 68 (nucleic acid, listed as Mus musculus)
# chain: CGATCGATATGGTCACCCACAGCAAGTTTCCCGCCGCCGGGATGAGCCGCCCCCTGGACACCAGCCTGCGCCTCAAGACCTTCAGCTCCAAAAGCGAGTACCAGCTGGTGGTGAACGCCGTGCGCAAGCTGCAGGAGAGCGGATTCTACTGGAGCGCCGTGACCGGCGGCGAGGCGAACCTGCTGCTCAGCGCCGAGCCCGCGGGCACCTTTCTTATCCGCGACAGCTCGGACCAGCGCCACTTCTTCACGTTGAGCGTCAAGACCCAGTCGGGGACCAAGAACCTACGCATCCAGTGTGAGGGGGGCAGCTTTTCGCTGCAGAGTGACCCCCGAAGCACGCAGCCAGTTCCCCGCTTCGACTGTGTACTCAAGCTGGTGCACCACTACATGCCGCCTCCAGGGACCCCCTCCTTTTCTTTGCCACCCACGGAACCCTCGTCCGAAGTTCCGGAGCAGCCACCTGCCCAGGCACTCCCCGGGAGTACCCCCAAGAGAGCTTACTACATCTATTCTGGGGGCGAGAAGATTCCGCTGGTACTGAGCCGACCTCTCTCCTCCAACGTGGCCACCCTCCAGCATCTTTGTCGGAAGACTGTCAACGGCCACCTGGACTCCTATGAGAAAGTGACCCAGCTGCCTGGACCCATTCGGGAGTTCCTGGATCAGTATGATGCTCCACTTGCGGCCGCTT
# Assays:
# [1] = system: C3H10T1/2 cells; assay: Transient over-expression of candidate genes, cooperation with BMP2 by measurement of alkaline phosphatase; format: cell-based, mouse; parameters: key: +: positive or negative cooperation with BMP2; −: positive or negative cooperation with BMP2; details: alkaline phosphatase
# Method: (§1) Mouse cell lines representing different stages of osteoblastic differentiation, C2C12, C2H10T1/2, ST2 and MC3T3-E1, were grown in the presence of agents capable of the induction of osteoblastic differentiation in vitro such as BMP2 and Sonic Hedgehog or in the presence of TGF beta (negative control) or with serum alone. Primary cells derived from mouse calvaria were also cultured for 0, 2, 7 14 and 21 days and RNA prepared for each time point. For example, C3H10T ½ and C2C12 can be obtained from the ATCC (Manassas, Va., USA) under the collection numbers CCL-226 and CRL-1772, respectively.
# (§2) The candidates genes are cloned in expression vectors and their ability to express a protein of the expected size verified by COS cells transient transfection. The genes are then transfected in C3H10T1/2 cells and/or C2C12 cells (transient over-expression) and positive or negative cooperation with BMP2 is evaluated by the measurement of alkaline phosphatase (enzymatic assay and TaqMan) at 48 hours. Controls of positive cooperation, recombinant Sonic Hedgehog, or negative cooperation, recombinant Noggin, are included in each test.
# [2] = system: C2C12 cells; assay: as above; format: cell-based, mouse; parameters: key: +: positive or negative cooperation with BMP2; −: positive or negative cooperation with BMP2
# Method: as §1, §2
molecule,measurement,setting,value
B1,Validation in vitro (coop over BMP2) C3H10T1/2,[1],−
same,Validation in vitro (coop over BMP2) C2C12,[2],−
